Article PMC3748026, “The Mini-Chromosome Maintenance (Mcm) Complexes Interact with DNA Polymerase α-Primase and Stimulate Its Ability to Synthesize RNA Primers” (PLoS ONE, 2013)
Blank lines part the entries; values can stand above or below the binder they belong to.

Assays:
DNA primase p48/p58 = target: T1, DNA primase p48/p58 (human, UniProt P49642;P49643 1-420;1-509); assay: EMSA; 0.5 mM ATPgS; EMSA: 25 mM Tris-HCl pH 7.5, 40 mM Na acetate, 10 mM Mg acetate, 20 mM 2-mercaptoethanol, 0.25 mg/ml BSA, 0.5 mM ATPgS, 30 C 30 min; pull-down: 25 mM Tris-HCl pH 7.5, 100 mM Na acetate, 10 mM Mg acetate, 0.25 mg/ml casein, 1 mM DTT, 0.01% Triton-X, 0.5 mM ATPgS or 1 mM ATP, 30 C 30 min then beads 4 C 30 min; conditions: protein: recombinant; tags: His6 on p58; p48 untagged; copies: 1;1; label: 5'-32P; single strand
T1 sequence 1: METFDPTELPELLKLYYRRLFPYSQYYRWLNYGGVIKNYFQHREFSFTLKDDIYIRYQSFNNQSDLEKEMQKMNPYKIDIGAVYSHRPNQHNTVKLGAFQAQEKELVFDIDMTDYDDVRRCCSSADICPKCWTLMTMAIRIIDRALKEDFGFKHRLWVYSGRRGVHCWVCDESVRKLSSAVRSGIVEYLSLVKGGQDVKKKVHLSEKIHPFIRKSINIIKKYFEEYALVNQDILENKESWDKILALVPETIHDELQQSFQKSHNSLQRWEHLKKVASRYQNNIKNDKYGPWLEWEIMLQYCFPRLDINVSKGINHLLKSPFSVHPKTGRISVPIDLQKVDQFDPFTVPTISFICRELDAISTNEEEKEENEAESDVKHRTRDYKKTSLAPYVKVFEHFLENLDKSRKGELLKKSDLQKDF
T1 sequence 2: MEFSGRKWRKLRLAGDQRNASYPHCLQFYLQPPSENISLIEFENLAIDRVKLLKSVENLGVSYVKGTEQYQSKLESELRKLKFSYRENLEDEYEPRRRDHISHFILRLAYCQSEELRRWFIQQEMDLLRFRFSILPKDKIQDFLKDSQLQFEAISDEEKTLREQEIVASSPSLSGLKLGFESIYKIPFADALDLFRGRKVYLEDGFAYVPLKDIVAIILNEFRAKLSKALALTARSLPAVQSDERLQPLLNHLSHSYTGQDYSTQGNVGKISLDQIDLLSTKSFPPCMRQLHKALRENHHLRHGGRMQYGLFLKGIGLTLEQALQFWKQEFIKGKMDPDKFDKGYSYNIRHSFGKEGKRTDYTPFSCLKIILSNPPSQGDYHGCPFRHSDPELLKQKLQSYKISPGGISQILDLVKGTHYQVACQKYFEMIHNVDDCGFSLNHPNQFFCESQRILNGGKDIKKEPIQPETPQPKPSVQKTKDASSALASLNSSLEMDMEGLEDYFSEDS

Mcm4/6/7 complex = Mcm4/6/7 complex (mouse, UniProt P49717;P97311;Q61881 1-862;1-821;1-719); assay: EMSA; 0.5 mM ATPgS; 2.3 nM Mcm4/6/7; EMSA: 25 mM Tris-HCl pH 7.5, 40 mM Na acetate, 10 mM Mg acetate, 20 mM 2-mercaptoethanol, 0.25 mg/ml BSA, 0.5 mM ATPgS, 30 C 30 min; pull-down: 25 mM Tris-HCl pH 7.5, 100 mM Na acetate, 10 mM Mg acetate, 0.25 mg/ml casein, 1 mM DTT, 0.01% Triton-X, 0.5 mM ATPgS or 1 mM ATP, 30 C 30 min then beads 4 C 30 min; conditions: protein: recombinant; tags: His6-Mcm4; Mcm7-Flag; chain copies: 2;2;2; label: 5'-32P; single strand
Chain of Mcm4/6/7 complex (P49717 whole entry, chain 1 of 3): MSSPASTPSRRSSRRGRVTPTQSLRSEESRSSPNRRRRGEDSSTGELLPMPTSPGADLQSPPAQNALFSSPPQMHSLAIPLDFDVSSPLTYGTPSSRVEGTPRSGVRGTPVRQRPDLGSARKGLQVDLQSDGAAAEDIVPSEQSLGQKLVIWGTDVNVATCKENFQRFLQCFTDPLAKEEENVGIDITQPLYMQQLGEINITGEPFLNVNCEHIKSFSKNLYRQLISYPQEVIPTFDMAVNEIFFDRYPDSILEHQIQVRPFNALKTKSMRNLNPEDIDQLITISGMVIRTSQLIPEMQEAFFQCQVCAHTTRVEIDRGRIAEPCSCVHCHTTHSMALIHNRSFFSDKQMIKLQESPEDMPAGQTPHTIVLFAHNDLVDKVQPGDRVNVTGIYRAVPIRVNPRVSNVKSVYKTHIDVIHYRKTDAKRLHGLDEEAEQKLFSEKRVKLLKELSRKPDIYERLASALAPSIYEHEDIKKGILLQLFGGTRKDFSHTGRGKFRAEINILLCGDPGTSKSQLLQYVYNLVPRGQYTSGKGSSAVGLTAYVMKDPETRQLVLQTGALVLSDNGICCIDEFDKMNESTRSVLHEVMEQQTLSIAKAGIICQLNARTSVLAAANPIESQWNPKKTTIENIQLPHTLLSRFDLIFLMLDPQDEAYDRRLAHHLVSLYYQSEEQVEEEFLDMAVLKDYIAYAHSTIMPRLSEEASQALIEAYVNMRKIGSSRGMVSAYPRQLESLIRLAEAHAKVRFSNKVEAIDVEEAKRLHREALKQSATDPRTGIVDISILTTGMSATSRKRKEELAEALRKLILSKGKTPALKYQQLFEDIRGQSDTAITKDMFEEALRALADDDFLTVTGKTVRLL
Chain of Mcm4/6/7 complex (P97311 whole entry, chain 2 of 3): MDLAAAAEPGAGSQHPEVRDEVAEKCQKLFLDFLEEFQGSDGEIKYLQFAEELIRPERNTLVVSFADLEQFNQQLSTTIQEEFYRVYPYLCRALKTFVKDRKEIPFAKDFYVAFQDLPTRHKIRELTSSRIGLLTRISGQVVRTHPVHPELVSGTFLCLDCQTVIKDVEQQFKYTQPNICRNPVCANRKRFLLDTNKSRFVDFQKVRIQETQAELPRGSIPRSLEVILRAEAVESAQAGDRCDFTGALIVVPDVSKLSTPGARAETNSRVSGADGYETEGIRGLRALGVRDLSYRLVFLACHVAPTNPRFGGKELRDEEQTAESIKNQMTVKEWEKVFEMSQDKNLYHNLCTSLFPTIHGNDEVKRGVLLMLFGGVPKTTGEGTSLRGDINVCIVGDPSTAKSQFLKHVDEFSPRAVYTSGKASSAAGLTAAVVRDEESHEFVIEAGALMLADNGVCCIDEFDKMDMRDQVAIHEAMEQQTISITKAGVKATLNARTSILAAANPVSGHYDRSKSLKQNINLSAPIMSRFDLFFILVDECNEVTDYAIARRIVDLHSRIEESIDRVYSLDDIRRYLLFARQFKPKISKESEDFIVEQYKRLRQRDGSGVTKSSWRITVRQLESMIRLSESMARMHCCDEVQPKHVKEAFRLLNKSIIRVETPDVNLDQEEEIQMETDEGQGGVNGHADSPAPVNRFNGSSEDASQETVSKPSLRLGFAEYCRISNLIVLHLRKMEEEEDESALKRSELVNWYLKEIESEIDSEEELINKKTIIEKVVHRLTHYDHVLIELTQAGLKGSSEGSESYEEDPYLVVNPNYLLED
Chain of Mcm4/6/7 complex (Q61881 whole entry, chain 3 of 3): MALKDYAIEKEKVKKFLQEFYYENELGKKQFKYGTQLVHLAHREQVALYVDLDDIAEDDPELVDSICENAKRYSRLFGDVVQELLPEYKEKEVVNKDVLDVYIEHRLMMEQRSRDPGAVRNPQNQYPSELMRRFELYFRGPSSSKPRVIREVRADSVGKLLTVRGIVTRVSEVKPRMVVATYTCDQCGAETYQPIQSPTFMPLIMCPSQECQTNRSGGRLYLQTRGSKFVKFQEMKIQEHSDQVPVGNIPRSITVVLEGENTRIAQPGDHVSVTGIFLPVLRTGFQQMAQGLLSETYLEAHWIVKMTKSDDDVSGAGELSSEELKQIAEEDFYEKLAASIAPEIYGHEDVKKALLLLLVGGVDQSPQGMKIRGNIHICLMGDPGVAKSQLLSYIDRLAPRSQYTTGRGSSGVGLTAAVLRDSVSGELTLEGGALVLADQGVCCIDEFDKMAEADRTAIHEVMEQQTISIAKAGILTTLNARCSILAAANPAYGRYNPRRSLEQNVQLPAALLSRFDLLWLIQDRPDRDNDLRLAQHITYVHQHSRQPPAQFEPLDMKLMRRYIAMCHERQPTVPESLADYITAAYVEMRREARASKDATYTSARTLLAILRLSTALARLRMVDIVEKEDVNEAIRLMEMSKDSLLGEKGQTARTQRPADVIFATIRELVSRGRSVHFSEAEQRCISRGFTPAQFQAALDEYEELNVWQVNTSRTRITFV

[1] = target: Mcm4/6/7 complex;DNA primase p48/p58 (mouse;human, UniProt P49717;P97311;Q61881;P49642;P49643 1-862;1-821;1-719;1-420;1-509, |); assay: EMSA; 0.5 mM ATPgS; 2.3 nM Mcm4/6/7, 25-100 nM primase; slower band, proportional to primase; EMSA: 25 mM Tris-HCl pH 7.5, 40 mM Na acetate, 10 mM Mg acetate, 20 mM 2-mercaptoethanol, 0.25 mg/ml BSA, 0.5 mM ATPgS, 30 C 30 min; pull-down: 25 mM Tris-HCl pH 7.5, 100 mM Na acetate, 10 mM Mg acetate, 0.25 mg/ml casein, 1 mM DTT, 0.01% Triton-X, 0.5 mM ATPgS or 1 mM ATP, 30 C 30 min then beads 4 C 30 min; conditions: protein: recombinant;recombinant; tags: His6-Mcm4; Mcm7-Flag;His6 on p58; p48 untagged; chain copies: 2;2;2;1;1; label: 5'-32P; single strand
Chain of Mcm4/6/7 complex;DNA primase p48/p58 (P49717 whole entry, chain 1 of 3): as the sequence (P49717 whole entry, chain 1 of 3) above
Chain of Mcm4/6/7 complex;DNA primase p48/p58 (P97311 whole entry, chain 2 of 3): as the sequence (P97311 whole entry, chain 2 of 3) above
Chain of Mcm4/6/7 complex;DNA primase p48/p58 (Q61881 whole entry, chain 3 of 3): as the sequence (Q61881 whole entry, chain 3 of 3) above

[2] = target: T2, mouse Mcm2∼7 complex (Mcm2/3/4/5/6/7), Flag tag on Mcm5 (mouse, UniProt P97310 1-904; P25206 1-812; P49717 1-862; P49718 1-734; P97311 1-821; Q61881 …); assay: cell-based or functional assay
[3] = target: mouse Mcm4/6/7 complex (His6-Mcm4, Mcm6, Mcm7-Flag) (mouse, UniProt P49717 1-862; P97311 1-821; Q61881 1-719); assay: cell-based or functional assay
Chain of mouse Mcm4/6/7 complex (His6-Mcm4, Mcm6, Mcm7-Flag) (P49717 whole entry, chain 1 of 3): as the sequence (P49717 whole entry, chain 1 of 3) above
Chain of mouse Mcm4/6/7 complex (His6-Mcm4, Mcm6, Mcm7-Flag) (P97311 whole entry, chain 2 of 3): as the sequence (P97311 whole entry, chain 2 of 3) above
Chain of mouse Mcm4/6/7 complex (His6-Mcm4, Mcm6, Mcm7-Flag) (Q61881 whole entry, chain 3 of 3): as the sequence (Q61881 whole entry, chain 3 of 3) above

[4] = target: the molecule itself; assay: native gel or EMSA; proteins alone or mixed, 25 mM Tris-HCl pH 7.5, 5 mM magnesium acetate, 20 mM 2-mercaptoethanol, 0.01% Triton X-100, 1 mM ATP, 30°C 15 min; 5% native PAGE at 4°C, silver staining; no DNA
[5] = target: T2, mouse Mcm2∼7 complex (Mcm2/3/4/5/6/7), …; assay: co-IP; purified Mcm2∼7 (Flag tag on Mcm5) held on anti-Flag M2 antibody agarose beads, mixed with purified primase, His-p48 or GINS, with or without an oligonucleotide, GINS or DNase I; 50 mM Tris-HCl pH 7.5, 100 mM sodium acetate, 5 mM magnesium acetate, 1 mM ATP, 10% glycerol, 0.01% Triton X-100; 2 h at 4°C; eluted with 0.1 M glycine pH 2.8 or boiled; silver or SYPRO staining and Western blotting; conditions: both partners purified

B1: 132-mer pyrimidine-rich oligonucleotide (ssDNA)
DNA: CCACACATGATTTGTTTGCTCCCTGAAATGATCTATATTTAATATATAATGTATATTCCCTCGGGATTTTTTATTTTGTGTTATTCCACGGCATGAAAAACAAAAAACATTCTTCTCATCCTTGGTCCCTCA
- binding result (DNA primase p48/p58): binds
- binding result (Mcm4/6/7 complex): binds
- binding result [1]: binds

- RNA primer synthesis by p48/p58 primase on poly(dT) with 100-400 ng of Mcm2∼7 [2]: ~3 fold
- RNA primer synthesis by p48/p58 primase on M13 ssDNA with 100-600 ng of Mcm4/6/7 [3]: 4 to 7 fold
- RNA primer synthesis by p48/p58 primase on poly(dT) with 100-600 ng of Mcm4/6/7 [3]: ~3 fold
B2: human DNA primase p48/p58 hetero-dimeric complex (His-tagged p58, non-tagged p48) (complex)
chain 1: METFDPTELPELLKLYYRRLFPYSQYYRWLNYGGVIKNYFQHREFSFTLKDDIYIRYQSFNNQSDLEKEMQKMNPYKIDIGAVYSHRPNQHNTVKLGAFQAQEKELVFDIDMTDYDDVRRCCSSADICPKCWTLMTMAIRIIDRALKEDFGFKHRLWVYSGRRGVHCWVCDESVRKLSSAVRSGIVEYLSLVKGGQDVKKKVHLSEKIHPFIRKSINIIKKYFEEYALVNQDILENKESWDKILALVPETIHDELQQSFQKSHNSLQRWEHLKKVASRYQNNIKNDKYGPWLEWEIMLQYCFPRLDINVSKGINHLLKSPFSVHPKTGRISVPIDLQKVDQFDPFTVPTISFICRELDAISTNEEEKEENEAESDVKHRTRDYKKTSLAPYVKVFEHFLENLDKSRKGELLKKSDLQKDF
chain 2: MEFSGRKWRKLRLAGDQRNASYPHCLQFYLQPPSENISLIEFENLAIDRVKLLKSVENLGVSYVKGTEQYQSKLESELRKLKFSYRENLEDEYEPRRRDHISHFILRLAYCQSEELRRWFIQQEMDLLRFRFSILPKDKIQDFLKDSQLQFEAISDEEKTLREQEIVASSPSLSGLKLGFESIYKIPFADALDLFRGRKVYLEDGFAYVPLKDIVAIILNEFRAKLSKALALTARSLPAVQSDERLQPLLNHLSHSYTGQDYSTQGNVGKISLDQIDLLSTKSFPPCMRQLHKALRENHHLRHGGRMQYGLFLKGIGLTLEQALQFWKQEFIKGKMDPDKFDKGYSYNIRHSFGKEGKRTDYTPFSCLKIILSNPPSQGDYHGCPFRHSDPELLKQKLQSYKISPGGISQILDLVKGTHYQVACQKYFEMIHNVDDCGFSLNHPNQFFCESQRILNGGKDIKKEPIQPETPQPKPSVQKTKDASSALASLNSSLEMDMEGLEDYFSEDS
notes: DNA primase small subunit p48, human; DNA primase large subunit p58, human; End of the His tag is read from the printed name His-p58; also called His-p58/p48 complex; His-tagged p48/p58 complex; source: E. coli BL21 (DE3) RIL, purified as previously described [58]; not shown: His tag, N-terminal, kept
- binding result [4]: binds

- binding result [5]: binds
B3: His-tagged p48 alone (human DNA primase p48 single subunit) (natural protein, UniProt P49642 1-420, looked up)
chain: METFDPTELPELLKLYYRRLFPYSQYYRWLNYGGVIKNYFQHREFSFTLKDDIYIRYQSFNNQSDLEKEMQKMNPYKIDIGAVYSHRPNQHNTVKLGAFQAQEKELVFDIDMTDYDDVRRCCSSADICPKCWTLMTMAIRIIDRALKEDFGFKHRLWVYSGRRGVHCWVCDESVRKLSSAVRSGIVEYLSLVKGGQDVKKKVHLSEKIHPFIRKSINIIKKYFEEYALVNQDILENKESWDKILALVPETIHDELQQSFQKSHNSLQRWEHLKKVASRYQNNIKNDKYGPWLEWEIMLQYCFPRLDINVSKGINHLLKSPFSVHPKTGRISVPIDLQKVDQFDPFTVPTISFICRELDAISTNEEEKEENEAESDVKHRTRDYKKTSLAPYVKVFEHFLENLDKSRKGELLKKSDLQKDF
notes: DNA primase small subunit p48, human; End of the His tag is read from the printed name His-p48; also called His-p48; source: E. coli BL21 (DE3) RIL, purified as previously described [58]; not shown: His tag, N-terminal, kept
